Test results reported in the supplement of paper PMC12764529.
± gives the half width of the 95% confidence interval.

What was measured:
[1] = folding stability dG unfold from chymotrypsin proteolysis; higher = more stable
Method in brief: (§1)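 Unfolding free energy was derived, per protease or combined, by relating Bayesian-fitted K50 values from sequencing counts to a sequence-predicted unfolded-state K50 and a shared folded-state K50. The underlying digests exposed cysteine-free mini-proteins under 80 residues, in a PA-tagged cDNA display construct, to trypsin and chymotrypsin at 11 threefold-diluted concentrations and to a no-protease condition. A filter kept only designs with AlphaFold2 dimer inter-PAE above 15.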

[2] = folding stability dG unfold (combined trypsin and chymotrypsin); higher = more stable
Method in brief: as §1

[3] = folding stability dG unfold from trypsin proteolysis; higher = more stable
Method in brief: as §1

Sequence | folding stability dG unfold [1] | folding stability dG unfold [2] | folding stability dG unfold [3]
SAGGSAGGPPPAKVVEVREVTLEDLENLDKLLVVFPDGKVYTSPEALRKWLEEGKPVLVAVFEGSAGGSAGG [r6_827_TrMRF] | 1.96 ± 0.049 kcal/mol | 1.88 ± 0.15 kcal/mol | 1.6 ± 0.084 kcal/mol
SAGGSAGGSAGGSEVEVTTRPDGSIVARVRLPDGGVLTLVAEVGPDGSVVVTEASLSPESAGGSAGGSAGGS [r4_246_TrMRF] | 1.94 ± 0.027 kcal/mol | 1.66 ± 0.052 kcal/mol | 0.856 ± 0.026 kcal/mol
SAGGRVRLEERVLPDGRRVLVVHLPDRPLEVVIPLEGLALPPDQPVLVRGEGGVRELPIGDLLPEALFSAGG [r13_97_TrMRF] | 0.658 ± 0.053 kcal/mol | 0.88 ± 0.036 kcal/mol | 1.06 ± 0.011 kcal/mol
SADPNYHYKYKIKIEIAWFPPDDLEKLPPGMIMIPFDDHWIMIVIKLEPVEREPPPPPPEYDPETGDWKSAG [r14_126_TrROS] | 3.38 ± 0.17 kcal/mol | 3.23 ± 0.46 kcal/mol | 2.5 ± 0.43 kcal/mol
SAGGSAGGSAGGMVIKITTESGEKIEIEVPEEDEEKVKELVKELEKAGFKVKKVEVFEPSAGGSAGGSAGGS [r10_231_TrROS_Hall] | 1.87 ± 0.073 kcal/mol | 1.77 ± 0.17 kcal/mol | 1.6 ± 0.11 kcal/mol
SAGKQEIKVEAVFPGDTLEEFMEFIREFLAEQGLKIEPTEFEIDKVQPMPGGPMIRVTAWIKIEPPDDSAGG [r19_325_TrROS] | 2.95 ± 0.053 kcal/mol | 2.8 ± 0.22 kcal/mol | 2.31 ± 0.11 kcal/mol
SAGGSAGGPEIEVRFPDGWYVKITVERPEDGKVTVKVEVYHPDPNGKPIPPETAKNLAKEFLNKSAGGSAGG [r6_235_TrROS] | 0.294 ± 0.12 kcal/mol | 0.67 ± 0.11 kcal/mol | 0.945 ± 0.075 kcal/mol
SAGGSAGGSAMVVPRTYRVPPGLTVEEVADYLRAKDPNVIDATAERRPDGYLLVTVLVRLDSAGGSAGGSAG [r3_371_TrMRF] | 2.07 ± 0.079 kcal/mol | 1.69 ± 0.17 kcal/mol | 1.21 ± 0.068 kcal/mol
SAGGSANGKRVEVPITIFFYRRDPEDGKWEPIFPFEIPIRIPVPPGAEVTIEIEFTGNMFRITIEVSAGGSA [r15_537_TrROS] | 4.53 ± 0.094 kcal/mol | 4.09 ± 0.13 kcal/mol | 3.19 ± 0.11 kcal/mol
SAGGSPPDKWVTLPFTMRYPDNGLEVEVNIVINPDDGKIQVEMEVYDNGKPKQEVPATIPADEIKLSAGGSA [r2_188_TrROS] | 0.594 ± 0.23 kcal/mol | 0.699 ± 0.13 kcal/mol | 0.639 ± 0.035 kcal/mol
SAGGNKGKTIQINFMIDPEDPEMMIEKISKWLQAKGFKIESIEPRPVGNRWMYSATFRVPNGREITIWSAGG [r13_421_TrROS] | 1.61 ± 0.19 kcal/mol | 1.77 ± 0.17 kcal/mol | 1.76 ± 0.039 kcal/mol
SAGSSSMVLLKVTITFTDPNGTTTTLTYTFDDPSNPEKARAAVEALAAEIKAATGASWTITMTTVPVPGSAG [r14_146_JUSTAS] | 5.32 ± 0.066 kcal/mol | 5.17 ± 0.12 kcal/mol | 4.59 ± 0.16 kcal/mol
SAGGMSEEVRKLAEELAKKLNIEKVEVLPDGTVRITLKNGKKIEIKVEKVEVKEVKVEVEVEEVEEESAGGS [r16_296_TrROS_Hall] | 4.11 ± 0.28 kcal/mol | 3.62 ± 0.49 kcal/mol | 2.55 ± 0.27 kcal/mol
SAGGSAGGSPKPIPIKIDEVWPNPDNGKDYIVKIEFPDGKKHTFTSPEDIRKLPGFDVEVYELSAGGSAGGS [r20_192_TrROS] | 0.783 ± 0.27 kcal/mol | 0.621 ± 0.2 kcal/mol | 0.123 ± 0.058 kcal/mol
SAGGSAGGSAKENEKISIGPEITETGLDILEIKVDTNTKVVTIRFANKIYRIDKNGNISIVSSAGGSAGGSA [r18_445_TrMRF] | 2.51 ± 0.13 kcal/mol | 2.18 ± 0.17 kcal/mol | 1.73 ± 0.065 kcal/mol
SAGMKTKTIEETITFTFPPGNPPDLEEIKEKLKSKGVKVLKVEMFEPPGDYYVVTAKVVKELEPSELLSSAG [r5_167_JUSTAS] | 2.27 ± 0.039 kcal/mol | 1.84 ± 0.13 kcal/mol | 0.934 ± 0.072 kcal/mol
SAGGMKIKIEIEPEGDVVKVKIEIELPEGKVEVVEEEEAEVFEDGKIKVRFRVRRKDGPEFEFELDISAGGS [r8_449_TrMRF] | 4.41 ± 0.2 kcal/mol | 4.17 ± 0.18 kcal/mol | 3.49 ± 0.17 kcal/mol
SAMIEILSIEEFTRPDGKKLYKITLKTPDPEKVLEKLIELGVKPEIDPNNPDILIAVFPYEKIEEILKESAG [r14_777_TrMRF] | 5.05 ± 0.23 kcal/mol | 4.77 ± 0.31 kcal/mol | 3.12 ± 0.14 kcal/mol
SAGGSAGGSPRVLEIRRYPLPDGGYLLEVRFEKETLFIPVPENVPPHSLEEIEIPLLLGEKPESAGGSAGGS [r12_673_TrMRF] | 1.6 ± 0.027 kcal/mol | 1.6 ± 0.044 kcal/mol | 1.49 ± 0.022 kcal/mol
SAGGSAGGSMELDEDGRLIVRIKVRDKETKEWKEIEIELPGLTEEEIRKLAEELGAEEIEILPSAGGSAGGS [r12_792_TrROS_Hall] | 2.39 ± 0.083 kcal/mol | 2.43 ± 0.078 kcal/mol | 2.35 ± 0.061 kcal/mol
SAGGRLVEAIREANKQGKPMSREEIKDKIKDAIREQNEENGGKIPEIEITDIHWNPDNGYVPIEIKVSAGGS [r16_365_TrROS] | -0.62 ± 0.27 kcal/mol | -0.561 ± 0.25 kcal/mol | -0.152 ± 0.2 kcal/mol

Sequence | folding stability dG unfold [1] | folding stability dG unfold [2] | folding stability dG unfold [3]
SAGGMPKIVEIEILSEEYDPSTGVRTYTAKVTYPDGTEEVVTIPVDLTDGNATEEEVKKRVEELVLESAGGS [r16_221_JUSTAS] | 3.66 ± 0.11 kcal/mol | 3.76 ± 0.13 kcal/mol | 3.95 ± 0.22 kcal/mol
SAGGSAGGSAMYKVTIEIPETGKIYTFTHPGTAEEALAAALPEIGVSKEKIKKITVTPTEESAGGSAGGSAG [r3_79_JUSTAS] | 1.36 ± 0.11 kcal/mol | 0.994 ± 0.11 kcal/mol | 0.312 ± 0.079 kcal/mol
SAGGSAGGSAGGSKPKVKITIEKNKETNEYTITIEKDGKKYTFVVKNLKPDDPAIKKALSAGGSAGGSAGGS [r4_328_TrROS_Hall] | 3.007 ± 0.03 kcal/mol | 2.55 ± 0.09 kcal/mol | 1.1 ± 0.043 kcal/mol
SAGGSAGGSAGGSKETVKIAIKVKPGEKEITIEIKGKKYKVKVEEKDGLLYLTVSKEDLSAGGSAGGSAGGS [r4_430_TrROS_Hall] | 3.44 ± 0.22 kcal/mol | 3.34 ± 0.32 kcal/mol | 4.4 ± 0.54 kcal/mol
SAGMTFTTVTVERPLGSPEGKPVSLEEVEEYAKKVAEELEPNGFPVENITIELLPDGTAVITMTIKKPLSAG [r14_470_JUSTAS] | 1.86 ± 0.044 kcal/mol | 1.94 ± 0.056 kcal/mol | 2.03 ± 0.042 kcal/mol
SAGSMVLTEDKEFEVDYVLPDGTRLTEPVKVKVKTTTVFLKNNSSLVLTFTTVTLTDPKGNKVTFSGSVSAG [r5_257_JUSTAS] | 2.969 ± 0.018 kcal/mol | 2.7 ± 0.1 kcal/mol | 2.31 ± 0.074 kcal/mol
SMSLVVSEEVDPATGTTTVTTTFPSPGVTVTATASAAGDSVTTTVTTTSPAPSAPTTTTTTTPVAPPGTDAS [r1_404_JUSTAS] | -0.3 ± 0.077 kcal/mol | 0.806 ± 0.087 kcal/mol | 1.55 ± 0.067 kcal/mol
SAGGSAGGSMIIIVKLPNGEELPIEVEGEEEAEKIAEEIVKALIEKGITPVSVEIRPIKPEEGSAGGSAGGS [r12_301_TrMRF] | 2.28 ± 0.17 kcal/mol | 2.97 ± 0.21 kcal/mol | 3.13 ± 0.13 kcal/mol
SAGGSADPDDKEQKIKVEIETYRLEDNGMEVTRIELEGHGMPIYIARFPDGRMFIFTANGELEQIPSAGGSA [r15_617_TrROS] | 2.71 ± 0.059 kcal/mol | 2.41 ± 0.16 kcal/mol | 1.97 ± 0.14 kcal/mol
SAGGSAIWIPVDEIRDLLKEFGIDVTVERHPNDGWVEIEIKMRRPNGKKHPIKIWVHPDGYIRIEPSAGGSA [r15_1051_TrROS] | 4.42 ± 0.15 kcal/mol | 4.03 ± 0.18 kcal/mol | 3.23 ± 0.16 kcal/mol
SAKPIPLKNVTINMYKDEKGNYYFKVTLNDKFIGEFEFETTEEALEGAIELAKEIEKIYGPNNIKIKNESAG [r14_791_TrMRF] | 2.7 ± 0.067 kcal/mol | 2.64 ± 0.31 kcal/mol | 2.33 ± 0.2 kcal/mol
SAGGPITITYDEETGVLTITITVPSLEEAEALIKALLPPGAEATRITVERNEDGSVTVTVEIRLPKGLSAGG [r13_338_TrROS_Hall] | 1.49 ± 0.024 kcal/mol | 2.31 ± 0.062 kcal/mol | 2.99 ± 0.08 kcal/mol
SAGGSAGGSMKNIKEIKVERRKLPNGGEYYVVTITYPDGKEIIIEMSPEETLEEALEKAKELSSAGGSAGGS [r12_1047_JUSTAS] | 3.01 ± 0.21 kcal/mol | 2.92 ± 0.13 kcal/mol | 2.87 ± 0.16 kcal/mol
SAGGSAGGGSMSMPVTTKLVEEYTFPGTKEEAEEFLKKKLPPNYQVEITETPDSIKVKVYKVEGSAGGSAGG [r6_953_JUSTAS] | 2.36 ± 0.042 kcal/mol | 2.38 ± 0.057 kcal/mol | 2.31 ± 0.053 kcal/mol
SAGGSALDPDDLEKVTIEFMFYNPNGNLLYEMTLEIYPDDGVIKMEHKQRRPGEPQKVTMEFPFDPSAGGSA [r15_278_TrROS] | 1.67 ± 0.18 kcal/mol | 1.73 ± 0.28 kcal/mol | 1.63 ± 0.29 kcal/mol
SAGGSAGGSAGGFRIKITEIWPISMEMRKPDPENGKWKEQPMTIMIIRIKIENLPPGAKISAGGSAGGSAGG [r17_530_TrROS] | 3.9 ± 0.079 kcal/mol | 3.41 ± 0.1 kcal/mol | 2.54 ± 0.048 kcal/mol
SSMPLEEIVERVAEELGIPEEELERIESVDPGVVDPSPEGPTRVELRITLRDPHSDTTTEYRVEVEDPGGSA [r9_230_JUSTAS] | -0.503 ± 0.46 kcal/mol | -0.501 ± 0.29 kcal/mol | -0.784 ± 0.3 kcal/mol
SAGGPKVEIVDITVTEEEVNGKKKKTVTVKVKLENGETLTITMSEEELKKLGLSVEEIAKKLAKKLKSAGGS [r16_625_TrROS_Hall] | 2.38 ± 0.044 kcal/mol | 2.09 ± 0.15 kcal/mol | 1.54 ± 0.035 kcal/mol
SAGGSAGGSAGMVLLKSEEEAEELRKPNVSLSVTPVPPVEVSEGDPNALAYEVELKPPLESAGGSAGGSAGG [r11_168_JUSTAS] | 0.0585 ± 0.17 kcal/mol | 0.86 ± 0.11 kcal/mol | 1.49 ± 0.053 kcal/mol
SAGGSAGGSAGGSPVAAKTLSKSTSLLPNGKVKTSTTTAFPTGETTTTTTTTPLSLTLTSAGGSAGGSAGGS [r10_1206_JUSTAS] | 0.158 ± 0.17 kcal/mol | -0.0493 ± 0.12 kcal/mol | -0.654 ± 0.27 kcal/mol
SAGGSAGGSEATLEVEVRVDGVLVRVRVEYDLETQELRIEVEVRPLPPPPVEVRTEYRSLEDLSAGGSAGGS [r12_813_TrROS_Hall] | 1.59 ± 0.26 kcal/mol | 1.5 ± 0.27 kcal/mol | 1.23 ± 0.052 kcal/mol
